Test results published in patent US12419977B2, “Radiopharmaceuticals” (AdvanCell Isotopes Pty Limited, priority 2022, dated 2025).

System: PC3-PIP (PSMA expressing) and PC3 (PSMA deficient) tumours
Design: species or system male BALB/c nude mice
Conditions: mouse, in vivo
Description: In vivo biodistribution studies of [^212Pb]Pb-ADVC001 were performed using an animal model of prostate cancer. Tumour xenographs were grown on opposite flanks of male BALB/c nude mice after inoculation with 10^6 PC3-PIP (PSMA expressing) and PC3 (PSMA deficient) cell lines. In this model, the PC3 tumours act as a control to assess the specificity of [^212Pb]Pb-ADVC001 uptake within PSMA expressing tumours. Once the tumours had reached 5-10 mm in size, 3 groups (representing 3 different time points) of 5 mice were injected with 300-325 kBq of [^212Pb]Pb-ADVC001 via the lateral tail vein. At 1, 4 and 24 hours after injection, mice were euthanised and multiple organs collected and weighed. Radioactivity in each organ was counted using a well-type gamma counter (counting window 218-258 keV). Activity levels of [^212Pb]Pb-ADVC001 expressed as percent injected dose/gram of tissue (% ID/g) measured from each organ over the 3 time points are given in Table 1 with the biodistribution plots presented in FIG. 1A. Activity accumulation over time of [^212Pb]Pb-ADVC001 for major organs (kidney, liver and bone marrow) along with tumour uptake is provided in FIG. 3. […] The biodistribution of [^212Pb]Pb-PSMA-I&T expressed as percent injected dose/gram of tissue (% ID/g) measured from each organ over the 3 time points is presented in FIG. 1B. […]

NC(=O)CN1CCN(CC(N)=O)CCN(C(CCC(=O)N[C@H](Cc2ccc(O)c(I)c2)C(=O)N[C@H](Cc2ccccc2)C(=O)N[C@H](CCCCNC(=O)CCCCCCC(=O)NCCCC[C@H](NC(=O)N[C@@H](CCC(=O)O)C(=O)O)C(=O)O)C(=O)O)C(=O)O)CCN(CC(N)=O)CC1 (stereo partly shown) [[^212Pb]Pb-ADVC001, metal not drawn]
tumour to kidney activity ratio: significantly higher
